Experiments:
Test in all cases: MTT cell proliferation assay (Table 3)
Assay type in all cases: cell-based, human
HT-29 = tested on: HT-29
Method: (§1) BARB4 was also evaluated for inhibition of proliferation of other cancer cell lines, including BxPC-3, COLO 205, H460, MDA-MB-231 and MIAPaCa-2 cells, as well as HT-29, HCT-116, BxPC-3, PANC-1, A549, PC-3 and HCT116 cells. In brief, various human cancer cell lines obtained from the American Type Culture Collection (ATCC) were established using standard in vitro culture methods and ATCC recommended media in 175 cm2 BD tissue culture treated flasks. In particular, MDAMB-231 cultures were incubated in a humidified 37° C., 100% air incubator, and BxPC-3, COLO 205, H460 and MIAPaCa-2 cultures were incubated in a humidified 37° C., 5% CO2, 95% air incubator. Cultures were sub-cultivated regularly to maintain log phase growth. All cell lines were brought up from cryopreservation using the original recommended ATCC media type and supplements. Cell line specific seeding densities were based on historical data from MIR Preclinical Services for growth over a 72 hr period.
(§2) The anti-proliferative activity of BARB4 and cisplatin was evaluated using the MTT cell proliferation assay (ATCC catalog #30-1010K). The assay is based on the reduction of yellow tetrazolium MTT (3-(4,5-dimethylthiazolyl-2)-2,5-diphenyltetrazolium bromide) by metabolically active cells forming purple formazan crystals. The purple formazan is solubilzed with detergent and quantified spectrophotometrically at 570 nm (MTT Cell Proliferation Assay, ATCC 30-1010K; Van de Loosdrecht, et al. J. Immunol. Methods 174:311 (1994): Ferrari, et al. J. Immunol. Methods 131:165 (1990); Gerlier, D., and N. Thomasset. J. Immunol. Methods 94:57 (1986); Alley, et al. Cancer Res. 48:589 (1988); and Mosmann, T. J. Immunol. Methods 65:55 (1983)). The MTT Cell Proliferation Assay Kit from ATCC contains ready to use MTT and detergent solutions.
(§3) Cells in the log phase of growth were seeded into 96-well culture plates in 0.1 mL of complete medium in all wells except column 12 which was reserved for media-only control (blank) and allowed to attach overnight at 37° C. Compounds were diluted in complete culture media and added to each well in a volume of […] for a final 1:2 dilution from the 2× dilution reservoir concentration. At 24 and 48 hr post-treatment, 100 μl of media was removed and 0.01 mL of MTT reagent was added to each well. The plates were returned to the incubator for four hours. Detergent reagent (0.1 mL) was then added and the plates incubated overnight at 37° C. in the dark to solubilize the formazan crystals. The absorbance at 570 nm was measured with a SpectraMAX® Plus plate reader (Molecular Devices Corporation) at 24 and 48 hr post-detergent addition. Absorbance values were converted to percent of control and then plotted against test agent concentrations for IC50 calculations using SoftMax® Pro v. 5.2 (Molecular Devices Corporation). Plots of percent of control vs. compound (BARB4 or cisplatin) concentration were analyzed using the 4 parameter equation to obtain IC50 values and other parameters that describe the sigmoidal curve along with an R2 value.
(§4) Using the same MTT assay as described for the BxPC-3, COLO 205, H460, MDA-MB-231 and MIAPaCa-2 cells, proliferation of HT-29, HCT-116, BxPC-3, PANC-1, A549, PC-3 and HCT116 cells was evaluated and IC50 (μg/ml) was calculated at 24, 48 and 72 hours. The cell culture protocol for passaging adherent cells used is substantially as described above for the BxPC-3, COLO 205, H460, MDA-MB-231, and MIAPaCa-2 cells. The following were the cell line propagation conditions:
(§5) Atmosphere. 5% CO2, humidified Media Supplements Used: * FBS—Fetal Bovine Serum (Gibco 10082-147; lot #1354986), * PSG—Penicillin, Streptomycin, L-Glutamine Solution (CellGro 30-009-CI), * 0.1M Na Pyruvate (CellGro 25-000-CI), * 1.0M HEPES (CellGro 25-060-CI), AND * 45% Glucose (CellGro 25-037-CI). Seeding Densities* for IC50 Assays: A549 2.5×10^3; PC-3 6.0×10^3; HT-29 12×10^3; HCT-116 8.0×10^3; BxPC-3 12×10^3; and PANC-1 6.0×10^3 cells.

HCT-116 = tested on: HCT-116
Method: as §1, §2, §3, §4, §5

PC-3 = tested on: PC-3
Method: as §1, §2, §3, §4, §5

PANC-1 = tested on: PANC-1
Method: as §1, §2, §3, §4, §5

A549 = tested on: A549
Method: as §1, §2, §3, §4, §5

BxPC-3 = tested on: BxPC-3
Method: as §1, §2, §3, §4, §5

B1: BARB4: human IgG antibody produced by hybridoma DSMZ Deposit No. DSM ACC2876; heavy chain SEQ ID NOs:1, 3, 5, 7, light chain SEQ ID NO:9 (antibody, V domains shown)
VH: QVQLVESGGGVVQPGRSLRLSCAASGFRFTTHGMHWVRQAPGKGLEWVAVISYNGRNKYYADYVNGRFTISRDDSRDTVFLQMNSLRPEDTAMYYCAKVRGDGYGDYGYFDYWGHGTLVSVSS
VL: QSALTQPRSVSGSPGQSVTISCTGTYNYVSWYQQHPGKAPKLMIFDVSRRSSGVPDRFSGSKSGNTASLTISGLQAEDEADYYCCSYGGTYLYVFGTGTTVTVLGQ
IC50 24 hours (HT-29; 24 hours): 399.5 µg/mL | IC50 48 hours (HT-29; 48 hours): 300.1 µg/mL | IC50 72 hours (HT-29; 72 hours): 228.8 µg/mL | IC50 24 hours (HCT-116; 24 hours): 24.8 µg/mL | IC50 48 hours (HCT-116; 48 hours): 77.3 µg/mL | IC50 72 hours (HCT-116; 72 hours): 95.2 µg/mL | IC50 24 hours (PC-3; 24 hours): 57.2 µg/mL | IC50 48 hours (PC-3; 48 hours): 64.2 µg/mL | IC50 72 hours (PC-3; 72 hours): 155.7 µg/mL | IC50 24 hours (PANC-1; 24 hours): 91.4 µg/mL | IC50 48 hours (PANC-1; 48 hours): 337.1 µg/mL | IC50 72 hours (PANC-1; 72 hours): 353.2 µg/mL | IC50 24 hours (A549; 24 hours): 98.9 µg/mL | IC50 48 hours (A549; 48 hours): 111.2 µg/mL | IC50 72 hours (A549; 72 hours): 122.2 µg/mL | IC50 24 hours (BxPC-3; 24 hours): 88.9 µg/mL | IC50 48 hours (BxPC-3; 48 hours): 362.8 µg/mL | IC50 72 hours (BxPC-3; 72 hours): 511.4 µg/mL

From US20090291083A1, “BARB4 TARGET, ANTIBODY DESIGNATED BARB4, BARB4 RELATED ANTIBODIES, AND METHODS OF MAKING AND USING SAME” (PATRYS LIMITED, priority 2008, published 2009)
